System: Bacillus subtilis
Test: cleaved RNA product abundance (RNA/gDNA barcode ratio) relative to median wild-type variant (ratio to wild type); higher = more accumulation of the downstream cleavage product
Summary of the method: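 Sequencing of barcodes from gel-selected, reverse-transcribed cleaved RNA and from genomic DNA, with UMI collapsing, yielded a per-construct RNA:gDNA ratio. Scaled to the median construct with the unmutated site, this ratio is the cleaved product abundance. The barcoded reporters (truncated aprE or tetM mRNAs with mutagenized RNase Y cleavage-site windows) were integrated into the B. subtilis chromosome, and cultures grew in LB at 37°C from OD600 0.0003 to 0.3.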

[1] = experiment (reporter, strain, medium): exp 4a: truncated aprE reporter, strain BJT201 with 2% xylose (RNase J1 expressed), cleavage site: cggR-gapA (positions -7 to +36 mutated)
[2] = experiment (reporter, strain, medium): exp 8a: truncated aprE reporter, strain BJT201 with 2% xylose (RNase J1 expressed), cleavage site: glnRA (positions -5 to +31 mutated)
[3] = experiment (reporter, strain, medium): exp 2b: truncated aprE reporter, strain BJT200, cleavage site: cggR-gapA (positions -7 to +36 mutated)

Sequence | cleaved RNA product abundance [1] | cleaved RNA product abundance [2] | cleaved RNA product abundance [3] | other results
ACAGACGAAGGAGCCGCAAGGTAGTTATTAAGGGATGAATAATCCCTCAATATAAATATCTCTCACTTATTTAAA | 1 |  |  | 
CGACATGTCCCGCTTCTTTCATTACTCCGTTAGCAAGTGTTTTGCTATATACATTTACCTTTTAAGAGGAGGAAT |  | 0.557 |  | 
CGACATGTCCCGCTTCTTTCATTAATCAGTTAGCAACTGTTTTGCTATATACATTTACCGTTTAAGAGGAGGAAT |  | 0.649 |  | 
CGACATGTCCCGCTTCTTTCATTAATCCGTTAGCAACTGTTTTGCTATATGCAATTACCTTTTAAGAGGAGGAAT |  | 0.289 |  | 
ACAGACGAAGGAGCCGCAAAGTAGTTATTAAGGGATGAATAATCCCTCAATACAAATATCTCTCACTTATTTAAA | 0.0777 |  |  | 
ACAGACGAAGGAGCCGCAAAGAAGTTATTAAGGGATTAATAATCCCTCAATATCAATATCTCTCACTTATTTAAA | 0.0629 |  |  | 
ACAGACGAAGGAGCCGCAAAGAATTTATTAAGGGATGAATAATCCATCAATATAAATATCTCTCACTTATTTAAA | 0.269 |  | 0.204 | 
ACAGACGAAGGAGCCGCAAAGAAGTTATTAAGGGATGAATAATCACTCAATCTAAATATCTCTCACTTATTTAAA | 0.0379 |  |  | 
CGACATGTCCCGCTTCTTTCATTATTCCTTAAACAACTGTTTTGTAATATACATTATACCTTTAAGAGGAGGAAT |  | 0.242 |  | 
ACAGACGAAGGAGCCGCAAAGAAGTAATTAAGGGATGTATAATCCCTCAATATAAATATCTCTCACTTATTTAAA | 0.346 |  |  | 
ACAGACGAAGGAGCCGCAAAGAAGTTATTCAGGGATGAATAATACCTCAATATAAATATCTCTCACTTATTTAAA | 0.134 |  |  | 
CGACATGTCCCGCTTCTTTCATTAATCCGTTAGCAACTGTTTTACTATATACATTTACCTTTTAAGAGGAGGAAT |  | 0.619 |  | 
CGACATGTCCCGCTTCTTTCATTAATCCGTTAGCAACAGTTTTACTATATACATTTACCTTTTAAGAGGAGGAAT |  | 0.561 |  | 
ACAGACGAAGGAGCCGCAAAGAAGTTATTAAGGGTTGAAAAATCCCTCAATATAAATATCTCTCACTTATTTAAA | 0.565 |  |  | 
CGACATGTCCCGCTTCTTTCATTAATCCGTTAGAAAATGTTTTGCTATATACATTTACCTTTTAAGAGGAGGAAT |  | 0.396 |  | 
ACAGACGAAGGAGCCGCAAAGAAGTTATTAAGGGACGAATAATCCCGCAATATAAATATCTCTCACTTATTTAAA | 0.132 |  |  | 
ACAGACGAAGGAGCCGCAAAGAAGTTATTAAGGGATGAATAATCCCTCAATATAAATATTTCTCACTTATTTAAA | 0.864 |  | 1 | 
ACAGACGAAGGAGCCGCAAAGAAGTTATTAAGGGATAAATAATCCCTAAATATAAATATCTCTCACTTATTTAAA | 0.734 |  | 0.597 | 
CGACATGTCCCGCTTCTTTCATTAATCCGTTAGCAACTTTTTGGCTATATACATTTACCTTTTAAGAGGAGGAAT |  | 0.563 |  | 
ACAGACGAAGGAGCCGCAACGAAGTTATTAAGGGATGAATAATCCCTCAACATAAATATCTCTCACTTATTTAAA | 0.447 |  |  | 

Sequence | cleaved RNA product abundance [1] | cleaved RNA product abundance [2] | cleaved RNA product abundance [3] | other results
ACAGACGAAGGAGCCGCAAAGAATTTATTACGGGATGAATAATCCCTCAATATAAATATCTCTCACTTATTTAAA | 0.37 |  | 0.303 | 
ACAGACGAAGGAGCCGCAAAGAAGTTATTAAGGGATGAATAATCCCTCAATAAAAATGTCTCTCACTTATTTAAA | 0.0307 |  |  | 
ACAGACGAAGGAGCCGCAAAAAAGTTATTAAGGGATGTATAATCCCTCAATATAAATATCTCTCACTTATTTAAA | 1.09 |  | 1.06 | 
ACAGACGAAGGAGCCGCAAAGAAGTTATTAAGGGAGGAATAATCCCTAAATATAAATATCTCTCACTTATTTAAA | 0.324 |  | 0.404 | 
ACAGACGAAGGAGCCGCAAAGAAGTTATTAAGGGATCAATAATCCCTGAATATAAATATCTCTCACTTATTTAAA | 0.61 |  | 0.512 | 
ACAGACGAAGGAGCCGCAAAGAAGTAATTAAGGGATGACTAATCCCTCAATATAAATATCTCTCACTTATTTAAA | 0.289 |  | 0.123 | 
ACAGACGAAGGAGCCGCAACGAAGTTATTAAGGGATGAATAATCCCTCAAAATAAATATCTCTCACTTATTTAAA | 0.357 |  |  | 
ACAGACGAAGGAGCCGCAAAGAAGTTATTAATGGATGAATAATCCCCCAATATAAATATCTCTCACTTATTTAAA | 0.122 |  | 0.0983 | 
ACAGACGAAGGAGCCGCAAAGAAGTTATTAAGGGATCAATAATCCCACAATATAAATATCTCTCACTTATTTAAA | 0.208 |  | 0.192 | 
ACAGACGAAGGAGCCGCAAAGAAGTTATTAAGGGATGAATAAACCCTCAATATAAATATCTCTCACTTATTTAAA | 0.52 |  | 0.443 | cleaved RNA product abundance (experiment (reporter, strain, medium): exp 6: tetM reporter, strain 168, cleavage site: cggR-gapA (positions -7 to +36 mutated)): 0.578
CGACATGTCCCGCTTCTTTCATTAATCCGTGAGCAACTGTTTTGCTATATACATTTACCATTTAAGAGGAGGAAT |  | 0.655 |  | 
ACAGACGAAGGAGCCGCAAAGAAGTTATTAAGGGATCAATATTCCCTCAATATAAATATCTCTCACTTATTTAAA |  |  | 0.709 | 
ACAGACGAAGGAGCCGCAAAGAACCTATTAAGGGATGAATAATCCCTCAATATAAATATCTCTCACTTATTTAAA | 0.309 |  | 0.18 | 
ACAGACGAAGGAGCCGCAAAGAAGTTATTAAGGGATGAATTATCCCACAATATAAATATCTCTCACTTATTTAAA | 0.319 |  |  | 
CGACATGTCCCGCTTCTTTCATTAATCCGTTTGCAACTGTTTTACTATATACATTTACCTTTTAAGAGGAGGAAT |  | 0.879 |  | 
CGACATGTCCCGCTTCTTTCATTAATCCGTTATCAACTGTTTTGCTATATACATTCACCTTTTAAGAGGAGGAAT |  | 0.214 |  | 
ACAGACGAAGGAGCCGCAAATAAGTTATTAAGGTATGAATAATCCCTCAATATAAATTTCTCTCACTTATTTAAA | 0.159 |  |  | 
ACAGACGAAGGAGCCGCAAAGAAGTTATTAAGGGATGAATATTCCCTCACTATAAATATCTCTCACTTATTTAAA |  |  | 0.121 | 
ACAGACGAAGGAGCCGCAAAGAAGTTATTAAGGCATGAATAATCCCTCAATATAATTATCTCTCACTTATTTAAA | 0.095 |  | 0.0921 | 
CGACATGTCCCGCTTCTTTCATTAATCCGTTACCAACTGTTTTGCGATATACATTTACCTTTTAAGAGGAGGAAT |  | 0.264 |  | 

Sequence | cleaved RNA product abundance [1] | cleaved RNA product abundance [2] | cleaved RNA product abundance [3] | other results
ACAGACGAAGGAGCCGCAAACAAGTTATTAAGGGATTAATAATCCCTCAATATAAATATCTCTCACTTATTTAAA | 0.656 |  | 1.02 | 
ACAGACGAAGGAGCCGCAAAGAAGTTATTAAGGGAAAAATAATCCCTCAATATAAATATCTCTCACTTATTTAAA | 0.771 |  |  | 
ACAGACGAAGGAGCCGCTAAGAAGTTATTAAGGGATGAATAATCCATCAATATAAATATCTCTCACTTATTTAAA | 0.186 |  |  | 
CGACATGTCCCGCTTCTTTCATTAATCCGTTACCAACTGTTTTGCTATATAGATTTACCTTTTAAGAGGAGGAAT |  | 0.226 |  | 
ACAGACGAAGGAGCCGCAAAGAAGTTATTAAAGGATGAAAAATCCCTCAATATAAATATCTCTCACTTATTTAAA | 0.183 |  | 0.104 | 
ACAGACGAAGGAGCCGCAAAGAAGTTATTAAGTGATGAATAATCCCTCAATATAAATAACTCTCACTTATTTAAA | 0.119 |  |  | 
CGACATGTCCCGCTTCTTTCATTAATCCGTTAGCAAATGTTTTGCTATATACATTTAAATTTTAAGAGGAGGAAT |  | 0.806 |  | 
ACAGACGAAGGAGCCGCAAAGAAGTTATTAAGGGATCAATAATACCTCAATATAAATATCTCTCACTTATTTAAA | 0.146 |  |  | 
ACAGACGAAGGAGCCGCAAAGAAGTTATTAAGGGATGAAAAATCCCTCAGTATAAATATCTCTCACTTATTTAAA | 0.224 |  |  | 
ACAGACGAAGGAGCCGCAAAGAAGTTATTAATGGATGATTAATCCCTCAATATAAATATCTCTCACTTATTTAAA | 0.138 |  |  | 
CGACATGTCCCGCTTCTTTCATTAATCCGTTAGAAACTGTTTTGCTATATAAATTTACCTTTTAAGAGGAGGAAT |  | 0.256 |  | 
CGACATGTCCCGCTTCTTTCATTAATCCGTTAGGAACTGTTTTGCTATATATATTTACCTTTTAAGAGGAGGAAT |  | 0.367 |  | 
CGACATGTCCCGCTTCTTTCATTAATCAGTTAGCAACTGTTTTGCTATATACATTTACATTTTAAGAGGAGGAAT |  | 0.595 |  | 
ACAGACGAAGGAGCCGCAAAGAAGTATTTAAGGGATGAATAATCCCTCAATATAAATATCTCTCACTTATTTAAA | 0.288 |  | 0.275 | 
CGACATGTCCCGCTTCTTTCATTAATCCGTTAGCAACTGTTTTGGTACATACATTTACCTTTTAAGAGGAGGAAT |  | 0.119 |  | 
ACAGACGAAGGAGCCGCAAAGAAGTTATTAAGGAATTATTAATCCCTCAATATAAATATCTCTCACTTATTTAAA | 0.203 |  |  | 
ACAGACGAAGGAGCCGCAAAGAAGTTATTAAGGGATGAATTATCCCTTAATATAAATATCTCTCACTTATTTAAA | 0.438 |  |  | 
ACAGACGAAGGAGCCGCAAAGAAGTGATTAAGGCATGAATAATCCCTCAATATAAATATCTCTCACTTATTTAAA |  |  | 0.11 | 
ACAGACGAAGGAGCCGCAAAGAAGTTAATAAGGGATGAATAATCCCTAAATATAAATATCTCTCACTTATTTAAA | 0.306 |  |  | 
ACAGACGAAGGAGCCGCAAAGAAGTGATTAAGGGTTGAATAATCCCTCAATATAAATATCTCTCACTTATTTAAA | 0.263 |  | 0.15 | 
